In paper PMC3583667 (Molecular Biology of the Cell, 2013):
Read-outs that look alike come from different tables or passages of the source.

Experiments:
Test in all cases: co-IP
EGFP–Rab11-FIP1A [1] = target: T1, EGFP–Rab11-FIP1A (UniProt Q6WKZ4-1 1-612)
T1 sequence (looked up): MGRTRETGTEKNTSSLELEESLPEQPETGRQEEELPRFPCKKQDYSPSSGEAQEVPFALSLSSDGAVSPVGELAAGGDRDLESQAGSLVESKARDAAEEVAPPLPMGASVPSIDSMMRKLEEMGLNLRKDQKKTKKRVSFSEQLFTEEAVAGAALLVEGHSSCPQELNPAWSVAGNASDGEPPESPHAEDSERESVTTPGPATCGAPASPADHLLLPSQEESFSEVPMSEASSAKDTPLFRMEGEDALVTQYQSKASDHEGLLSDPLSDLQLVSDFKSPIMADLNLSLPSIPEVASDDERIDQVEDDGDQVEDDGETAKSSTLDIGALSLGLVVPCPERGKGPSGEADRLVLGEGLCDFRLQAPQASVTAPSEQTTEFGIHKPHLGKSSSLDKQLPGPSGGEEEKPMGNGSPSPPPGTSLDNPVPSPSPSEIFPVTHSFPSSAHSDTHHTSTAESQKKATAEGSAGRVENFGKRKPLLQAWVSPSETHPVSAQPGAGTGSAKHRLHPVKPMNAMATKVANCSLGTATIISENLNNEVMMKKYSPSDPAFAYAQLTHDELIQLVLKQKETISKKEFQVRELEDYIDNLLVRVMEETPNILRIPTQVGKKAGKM

EGFP–Rab11-FIP1B [2] = target: T2, EGFP–Rab11-FIP1B (UniProt Q6WKZ4-4 1-1283)
T2 sequence (looked up): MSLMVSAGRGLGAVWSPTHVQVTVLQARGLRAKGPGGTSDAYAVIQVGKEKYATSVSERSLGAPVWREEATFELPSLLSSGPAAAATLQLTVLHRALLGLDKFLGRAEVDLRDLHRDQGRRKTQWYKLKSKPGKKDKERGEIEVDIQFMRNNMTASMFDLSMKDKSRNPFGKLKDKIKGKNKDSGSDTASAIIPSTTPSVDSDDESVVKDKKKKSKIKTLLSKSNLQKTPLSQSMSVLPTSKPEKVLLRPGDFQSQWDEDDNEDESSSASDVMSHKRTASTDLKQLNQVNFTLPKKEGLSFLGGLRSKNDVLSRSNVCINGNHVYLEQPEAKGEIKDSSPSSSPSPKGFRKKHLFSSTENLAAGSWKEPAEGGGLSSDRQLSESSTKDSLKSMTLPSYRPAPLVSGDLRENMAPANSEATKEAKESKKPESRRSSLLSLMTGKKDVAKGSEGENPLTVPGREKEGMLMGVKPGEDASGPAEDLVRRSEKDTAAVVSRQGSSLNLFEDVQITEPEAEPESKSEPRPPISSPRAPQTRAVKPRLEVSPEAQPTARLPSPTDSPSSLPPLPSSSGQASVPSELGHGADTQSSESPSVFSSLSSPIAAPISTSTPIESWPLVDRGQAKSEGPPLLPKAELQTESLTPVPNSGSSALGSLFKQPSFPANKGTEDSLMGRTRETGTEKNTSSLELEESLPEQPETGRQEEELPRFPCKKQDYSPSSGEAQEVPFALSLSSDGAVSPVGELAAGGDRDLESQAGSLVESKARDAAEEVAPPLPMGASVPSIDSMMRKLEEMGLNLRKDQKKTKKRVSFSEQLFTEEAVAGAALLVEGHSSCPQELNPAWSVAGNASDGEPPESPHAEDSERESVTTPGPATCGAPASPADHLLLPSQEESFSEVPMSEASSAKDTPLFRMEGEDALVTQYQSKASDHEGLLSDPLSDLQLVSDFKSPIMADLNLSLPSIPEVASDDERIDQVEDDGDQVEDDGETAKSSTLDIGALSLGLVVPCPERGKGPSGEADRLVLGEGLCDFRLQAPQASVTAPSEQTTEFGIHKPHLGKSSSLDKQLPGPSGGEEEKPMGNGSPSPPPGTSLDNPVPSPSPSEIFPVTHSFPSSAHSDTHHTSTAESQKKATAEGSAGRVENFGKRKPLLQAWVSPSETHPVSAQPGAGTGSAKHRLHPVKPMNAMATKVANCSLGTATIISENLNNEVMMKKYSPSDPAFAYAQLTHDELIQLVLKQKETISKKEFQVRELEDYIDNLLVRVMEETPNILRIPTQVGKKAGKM

EGFP–Rab11-FIP1C [3] = target: T3, EGFP–Rab11-FIP1C (UniProt Q6WKZ4-3 1-649)
T3 sequence (looked up): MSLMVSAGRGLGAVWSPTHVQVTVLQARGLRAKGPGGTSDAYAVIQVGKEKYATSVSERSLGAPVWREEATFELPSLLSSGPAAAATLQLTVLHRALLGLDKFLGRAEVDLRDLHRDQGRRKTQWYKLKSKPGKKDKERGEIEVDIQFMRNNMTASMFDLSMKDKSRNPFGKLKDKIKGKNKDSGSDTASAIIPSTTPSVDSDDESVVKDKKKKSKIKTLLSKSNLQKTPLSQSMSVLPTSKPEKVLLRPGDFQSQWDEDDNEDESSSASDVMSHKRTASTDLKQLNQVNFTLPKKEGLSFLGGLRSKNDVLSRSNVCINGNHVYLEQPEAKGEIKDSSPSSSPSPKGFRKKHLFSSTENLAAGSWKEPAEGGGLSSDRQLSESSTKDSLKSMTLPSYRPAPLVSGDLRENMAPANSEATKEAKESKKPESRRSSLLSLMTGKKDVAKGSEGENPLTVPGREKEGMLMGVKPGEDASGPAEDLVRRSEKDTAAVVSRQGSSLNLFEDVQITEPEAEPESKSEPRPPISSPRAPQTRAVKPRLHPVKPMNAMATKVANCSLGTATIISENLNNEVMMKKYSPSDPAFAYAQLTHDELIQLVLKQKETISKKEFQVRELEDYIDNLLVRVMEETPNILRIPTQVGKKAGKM

EGFP–Rab11-FIP1A [4] = target: T1, EGFP–Rab11-FIP1A; remark: listed apart in the source
EGFP–Rab11-FIP1B [5] = target: T2, EGFP–Rab11-FIP1B; remark: listed apart in the source
EGFP–Rab11-FIP1C [6] = target: T3, EGFP–Rab11-FIP1C; remark: listed apart in the source

- percentage of total FIP1A recovered on the beads (EGFP–Rab11-FIP1A [1]): 15.2%
- percentage of total FIP1A recovered on the beads (EGFP–Rab11-FIP1B [2]): 11.8%
- percentage of total FIP1A recovered on the beads (EGFP–Rab11-FIP1C [3]): 15.2%
- percentage of total FIP1A recovered on the beads (EGFP–Rab11-FIP1A [4]): 18.6%
- percentage of total FIP1A recovered on the beads (EGFP–Rab11-FIP1B [5]): 13.4%
- percentage of total FIP1A recovered on the beads (EGFP–Rab11-FIP1C [6]): 11.6%
B1: mCherry–Rab11-FIP1A (natural protein, UniProt Q6WKZ4-1 1-612, looked up)
chain: MGRTRETGTEKNTSSLELEESLPEQPETGRQEEELPRFPCKKQDYSPSSGEAQEVPFALSLSSDGAVSPVGELAAGGDRDLESQAGSLVESKARDAAEEVAPPLPMGASVPSIDSMMRKLEEMGLNLRKDQKKTKKRVSFSEQLFTEEAVAGAALLVEGHSSCPQELNPAWSVAGNASDGEPPESPHAEDSERESVTTPGPATCGAPASPADHLLLPSQEESFSEVPMSEASSAKDTPLFRMEGEDALVTQYQSKASDHEGLLSDPLSDLQLVSDFKSPIMADLNLSLPSIPEVASDDERIDQVEDDGDQVEDDGETAKSSTLDIGALSLGLVVPCPERGKGPSGEADRLVLGEGLCDFRLQAPQASVTAPSEQTTEFGIHKPHLGKSSSLDKQLPGPSGGEEEKPMGNGSPSPPPGTSLDNPVPSPSPSEIFPVTHSFPSSAHSDTHHTSTAESQKKATAEGSAGRVENFGKRKPLLQAWVSPSETHPVSAQPGAGTGSAKHRLHPVKPMNAMATKVANCSLGTATIISENLNNEVMMKKYSPSDPAFAYAQLTHDELIQLVLKQKETISKKEFQVRELEDYIDNLLVRVMEETPNILRIPTQVGKKAGKM
